Data reported in the Immune Epitope Database (IEDB).

How the values were obtained:
HLA-A*01:01 = assay: IEDB peptide-MHC binding, purified MHC/competitive/radioactivity; ≥ and ≤ were set here for values at or beyond the usual limits of such assays; conditions: source organism: Triticum aestivum
HLA-B*08:01 = assay: as above; conditions: source organism: Triticum aestivum

Sequence	IC50 (HLA-A*01:01) [µM]	IC50 (HLA-B*08:01) [µM]
AMAMKIATA	≥ 100	0.048
CAAIHTIIH	≥ 100	0.465
FLLQQCKPV	≥ 100	0.0078
FPQQQRPFI	≥ 100	0.112
LAMAMKIATA	≥ 100	0.161
LEAIRSLVL	≥ 100	0.303
LIPCRDVVL	≥ 100	0.246
LLQQCKPVSL	≥ 100	0.014
LLQQSKPASL	33.5	0.025
LLSPRGKEL	≥ 100	0.091
LQQCKPVSL	≥ 100	0.072
MAMKIATAA	≥ 100	0.0052
MKTFLILAL	≥ 100	0.223
MNIASASRL	≥ 100	0.368
QGMHILLPL	≥ 100	0.073
QLEAIRSLV	17.1	0.353
SSQVLQQSTY	0.103	≥ 100
VMRQQCCQQL	≥ 100	0.162
VSFQQPQQQY	0.365	≥ 100
WLQQQLVPQL	≥ 100	0.286
